B2: KaiCDT (KaiC phospho-mimicking mutant with aspartate at Ser431) (natural protein, Synechococcus elongatus PCC 7942, UniProt Q79PF4 1-519, looked up)
chain: MTSAEMTSPNNNSEHQAIAKMRTMIEGFDDISHGGLPIGRSTLVSGTSGTGKTLFSIQFLYNGIIEFDEPGVFVTFEETPQDIIKNARSFGWDLAKLVDEGKLFILDASPDPEGQEVVGGFDLSALIERINYAIQKYRARRVSIDSVTSVFQQYDASSVVRRELFRLVARLKQIGATTVMTTERIEEYGPIARYGVEEFVSDNVVILRNVLEGERRRRTLEILKLRGTSHMKGEYPFTITDHGINIFPLGAMRLTQRSSNVRVSSGVVRLDEMCGGGFFKDSIILATGATGTGKTLLVSRFVENACANKERAILFAYEESRAQLLRNAYSWGMDFEEMERQNLLKIVCAYPESAGLEDHLQIIKSEINDFKPARIAIDSLSALARGVSNNAFRQFVIGVTGYAKQEEITGLFTNTSDQFMGAHSITDSHIDTITDTIILLQYVEIRGEMSRAINVFKMRGSWHDKAIREFMISDKGPDIKDSFRNFERIISGSPTRITVDEKSELSRIVRGVQEKGPES
notes: KaiC, circadian clock protein of Synechococcus elongatus PCC 7942, mono-phosphorylation mimic at Ser431; 72d-KaiCDT is the same protein, 72.2% deuterated, used in iCM-SANS; Printed mass of KaiC 65 kDa; also called h-KaiCDT; 72d-KaiCDT

Data set [1] concerns the target B2. As to the kind of experiment: native MS; nanoflow ESI-MS under non-denaturing conditions; 20 uM KaiCDT mixed with 3.3, 10, 20 and 30 uM KaiB (monomer), 30 °C for 4 h, exchanged into 150 mM ammonium acetate pH 7.5. The following applies: both partners purified.
The target of a further data set is T1, wild-type KaiC (Synechococcus elongatus PCC 7942, UniProt Q79PF4 1-519).
T1 construct: KaiC, circadian clock protein of Synechococcus elongatus PCC 7942; also called KaiCWT; source: Escherichia coli, Strep-tagged recombinant protein, purified
T1 sequence (looked up): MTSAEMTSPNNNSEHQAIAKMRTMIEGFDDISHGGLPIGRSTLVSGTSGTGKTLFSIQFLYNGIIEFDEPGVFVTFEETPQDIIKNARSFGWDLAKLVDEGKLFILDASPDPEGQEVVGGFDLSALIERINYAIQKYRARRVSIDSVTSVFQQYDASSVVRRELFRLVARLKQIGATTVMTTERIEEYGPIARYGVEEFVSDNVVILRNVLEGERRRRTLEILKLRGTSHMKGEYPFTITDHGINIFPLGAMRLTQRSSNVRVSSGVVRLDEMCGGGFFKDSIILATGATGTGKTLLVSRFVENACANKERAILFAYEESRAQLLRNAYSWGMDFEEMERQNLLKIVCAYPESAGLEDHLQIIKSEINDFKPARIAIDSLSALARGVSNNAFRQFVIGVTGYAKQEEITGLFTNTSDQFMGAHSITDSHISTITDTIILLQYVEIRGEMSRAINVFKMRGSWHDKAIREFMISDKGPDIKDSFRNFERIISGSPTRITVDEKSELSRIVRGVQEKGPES
As to the kind of experiment: native gel or EMSA; BN-PAGE (NativePAGE Novex Bis-Tris gel); KaiC variants incubated with KaiB at 30 °C for 12 h. The conditions noted are these: both partners purified. (Mobility shift assays separate free from complexed probe on a gel.)

Data set [2] addresses T2, KaiCDE (KaiC mutant with aspartate and glutamate residues at positions 431 and 432) (Synechococcus elongatus PCC 7942, UniProt Q79PF4 1-519, aspartate at position 431 | glutamate at position 432).
T2 construct: KaiC, circadian clock protein of Synechococcus elongatus PCC 7942, mimic of hyperphosphorylated KaiC; source: Escherichia coli, Strep-tagged recombinant protein, purified
T2 sequence (looked up): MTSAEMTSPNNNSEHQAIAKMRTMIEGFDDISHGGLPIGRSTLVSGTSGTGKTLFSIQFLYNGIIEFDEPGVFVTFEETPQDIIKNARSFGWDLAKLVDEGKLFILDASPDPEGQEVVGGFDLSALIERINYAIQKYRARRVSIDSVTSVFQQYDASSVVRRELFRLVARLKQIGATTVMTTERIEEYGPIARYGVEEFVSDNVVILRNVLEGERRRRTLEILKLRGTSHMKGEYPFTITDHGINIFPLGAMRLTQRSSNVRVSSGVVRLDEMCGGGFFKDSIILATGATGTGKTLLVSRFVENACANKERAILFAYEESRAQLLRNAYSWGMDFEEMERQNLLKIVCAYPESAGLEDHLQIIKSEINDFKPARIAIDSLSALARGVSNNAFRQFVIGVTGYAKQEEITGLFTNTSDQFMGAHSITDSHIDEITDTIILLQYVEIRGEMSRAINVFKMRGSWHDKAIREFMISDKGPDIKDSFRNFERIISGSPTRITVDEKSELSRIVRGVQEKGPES
Described as above. The following applies: both partners purified.

Data set [3] concerns the molecule itself. Nature of the data set: native MS; nanoflow ESI-MS under non-denaturing conditions; 20 uM KaiCDT mixed with 3.3, 10, 20 and 30 uM KaiB (monomer), 30 °C for 4 h, exchanged into 150 mM ammonium acetate pH 7.5.

B1: KaiB (natural protein, Synechococcus elongatus PCC 7942, UniProt Q79PF5 1-102, looked up)
chain: MSPRKTYILKLYVAGNTPNSVRALKTLKNILEVEFQGVYALKVIDVLKNPQLAEEDKILATPTLAKVLPLPVRRIIGDLSDREKVLIGLDLLYGELQDSDDF
notes: KaiB, circadian clock protein of Synechococcus elongatus PCC 7942; printed mass of KaiB 14 kDa; Six KaiB protomers stand in the complex with the KaiC hexamer; also called h-KaiB; source: Escherichia coli, Strep-tagged recombinant protein, purified
As usually defined, the stoichiometry N is the number of molecules, sites or subunits per partner or assembly. B1: in data set [1], the “stoichiometry N” value was 6 KaiB protomers per KaiC hexamer. Besides, the binding result (with wild-type KaiC; in data set [2]) was “binds” in each case.

On to B2, for which the “stoichiometry N” value in data set [3] came to 6.
